In patent US20160002331A1:
Where two headings read alike, the source gives them in different places. Values belong to the substance of their own block, whether it stands above or below them.

Experiments:
[1] = target: human Notch1 NRR_Avi_His recombinant protein (human) (UniProt P46531); experiment: SPR (Biacore T100), antibody captured by anti-human IgG-Fc, NRR_Avi_His as analyte, 1:1 Langmuir model
[2] = target: full-length mouse Notch1 expressed on the cell surface of U-2 OS cells (mouse) (UniProt Q01705); experiment: cell-based or functional assay
[3] = target: full-length human Notch1 expressed on the cell surface (human) (UniProt P46531); experiment: cell-based or functional assay
[4] = target: full-length mouse Notch1 expressed on the cell surface of U-2 OS cells (mouse) (UniProt Q01705); experiment: cell-based or functional assay; remark: listed apart in the source
[5] = target: Notch1 receptor with L1575P mutation (HPB-ALL cells) (UniProt P46531); experiment: cell-based or functional assay
Sequence of Notch1 receptor with L1575P mutation (HPB-ALL cells) (P46531 19-2555 L1593P limits assumed): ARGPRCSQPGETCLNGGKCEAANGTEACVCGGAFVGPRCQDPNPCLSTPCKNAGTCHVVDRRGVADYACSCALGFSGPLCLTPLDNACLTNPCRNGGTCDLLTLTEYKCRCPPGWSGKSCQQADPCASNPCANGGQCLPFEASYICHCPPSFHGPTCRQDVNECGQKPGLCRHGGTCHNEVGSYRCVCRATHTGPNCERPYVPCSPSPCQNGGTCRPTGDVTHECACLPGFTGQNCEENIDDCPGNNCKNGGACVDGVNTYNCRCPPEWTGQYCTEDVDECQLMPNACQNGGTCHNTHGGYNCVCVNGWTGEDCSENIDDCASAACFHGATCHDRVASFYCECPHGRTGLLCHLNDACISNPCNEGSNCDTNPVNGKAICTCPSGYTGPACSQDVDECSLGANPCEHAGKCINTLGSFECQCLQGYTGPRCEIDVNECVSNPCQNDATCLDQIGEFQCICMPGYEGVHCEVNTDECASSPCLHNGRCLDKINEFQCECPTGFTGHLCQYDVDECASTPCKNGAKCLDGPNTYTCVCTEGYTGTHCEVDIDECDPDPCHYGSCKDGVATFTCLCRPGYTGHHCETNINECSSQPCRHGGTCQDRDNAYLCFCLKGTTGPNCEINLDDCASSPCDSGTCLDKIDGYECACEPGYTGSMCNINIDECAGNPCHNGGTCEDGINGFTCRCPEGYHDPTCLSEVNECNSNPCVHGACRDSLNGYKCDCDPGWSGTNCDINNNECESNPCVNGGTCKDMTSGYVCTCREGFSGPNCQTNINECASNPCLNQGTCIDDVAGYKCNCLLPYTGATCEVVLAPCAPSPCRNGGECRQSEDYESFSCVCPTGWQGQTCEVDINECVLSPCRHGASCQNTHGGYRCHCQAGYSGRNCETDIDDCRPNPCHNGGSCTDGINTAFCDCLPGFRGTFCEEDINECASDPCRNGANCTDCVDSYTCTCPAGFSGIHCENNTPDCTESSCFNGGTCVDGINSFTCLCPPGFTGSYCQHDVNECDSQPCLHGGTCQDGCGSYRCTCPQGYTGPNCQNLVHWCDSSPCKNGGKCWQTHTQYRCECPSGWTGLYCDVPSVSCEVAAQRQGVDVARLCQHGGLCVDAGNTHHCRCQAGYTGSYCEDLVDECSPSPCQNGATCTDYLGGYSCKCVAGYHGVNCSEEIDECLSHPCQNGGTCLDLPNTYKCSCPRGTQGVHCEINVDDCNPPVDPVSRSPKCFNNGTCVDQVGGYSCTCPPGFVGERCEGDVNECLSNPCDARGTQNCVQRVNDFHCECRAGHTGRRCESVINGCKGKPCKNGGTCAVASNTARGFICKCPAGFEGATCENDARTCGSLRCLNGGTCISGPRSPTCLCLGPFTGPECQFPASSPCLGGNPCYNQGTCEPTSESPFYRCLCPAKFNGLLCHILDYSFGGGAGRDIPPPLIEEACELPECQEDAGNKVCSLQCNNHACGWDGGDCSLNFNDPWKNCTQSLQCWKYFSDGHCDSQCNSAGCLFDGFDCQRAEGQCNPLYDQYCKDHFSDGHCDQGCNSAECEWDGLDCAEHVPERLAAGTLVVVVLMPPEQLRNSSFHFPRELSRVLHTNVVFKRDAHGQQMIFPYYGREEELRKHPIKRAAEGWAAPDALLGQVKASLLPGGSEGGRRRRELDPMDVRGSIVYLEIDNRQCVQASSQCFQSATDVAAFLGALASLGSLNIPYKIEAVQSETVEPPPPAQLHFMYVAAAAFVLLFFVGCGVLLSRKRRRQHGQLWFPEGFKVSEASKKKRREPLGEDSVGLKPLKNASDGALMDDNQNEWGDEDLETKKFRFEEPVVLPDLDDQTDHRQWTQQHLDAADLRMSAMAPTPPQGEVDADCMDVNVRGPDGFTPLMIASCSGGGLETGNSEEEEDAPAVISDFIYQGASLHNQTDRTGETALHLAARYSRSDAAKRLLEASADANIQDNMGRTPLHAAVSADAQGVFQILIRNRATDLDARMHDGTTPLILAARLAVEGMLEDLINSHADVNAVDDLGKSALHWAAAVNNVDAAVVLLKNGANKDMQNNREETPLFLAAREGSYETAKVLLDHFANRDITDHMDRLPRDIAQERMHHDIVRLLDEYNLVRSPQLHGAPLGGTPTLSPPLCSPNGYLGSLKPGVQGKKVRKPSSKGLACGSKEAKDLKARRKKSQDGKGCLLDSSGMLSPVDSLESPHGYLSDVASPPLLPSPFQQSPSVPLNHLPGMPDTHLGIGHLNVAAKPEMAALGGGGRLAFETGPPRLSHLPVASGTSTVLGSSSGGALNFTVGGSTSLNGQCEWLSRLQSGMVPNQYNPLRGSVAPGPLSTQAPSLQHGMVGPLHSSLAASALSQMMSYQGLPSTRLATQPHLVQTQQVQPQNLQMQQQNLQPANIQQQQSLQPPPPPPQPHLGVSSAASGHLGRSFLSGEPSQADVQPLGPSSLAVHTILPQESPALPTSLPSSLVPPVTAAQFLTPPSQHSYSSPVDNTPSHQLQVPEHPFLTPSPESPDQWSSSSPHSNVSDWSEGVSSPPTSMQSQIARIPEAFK

[6] = target: Notch1 receptor with L1594P mutation (ALL-SIL cells) (UniProt P46531); experiment: cell-based or functional assay
Sequence of Notch1 receptor with L1594P mutation (ALL-SIL cells) (P46531 19-2555, stated change not applied): as the sequence (P46531 19-2555 L1593P limits assumed) above, with P1575L counted along it

[7] = target: Notch1 receptor with a 17 amino acid insertion at position 1740 (Jurkat cells) (UniProt P46531); experiment: cell-based or functional assay
[8] = target: Notch1 receptor with L1601P mutation (MOLT-4 cells) (UniProt P46531); experiment: cell-based or functional assay
[9] = target: full-length human Notch1 expressed on the cell surface (human) (UniProt P46531); experiment: cell-based or functional assay; remark: listed apart in the source
[10] = target: Notch1 receptor with L1594P/D1610V mutations (DND-41 cells) (UniProt P46531); experiment: cell-based or functional assay
Sequence of Notch1 receptor with L1594P/D1610V mutations (DND-41 cells) (P46531 19-2555, stated change not applied): as the sequence (P46531 19-2555 L1593P limits assumed) above, with P1575L counted along it

[11] = target: Notch1 receptor with a 12 amino acid insertion at position 1595 (CCRF-CEM cells) (UniProt P46531); experiment: cell-based or functional assay
Sequence of Notch1 receptor with a 12 amino acid insertion at position 1595 (CCRF-CEM cells) (P46531 other isoform, or with tags, fused parts or gaps limits assumed): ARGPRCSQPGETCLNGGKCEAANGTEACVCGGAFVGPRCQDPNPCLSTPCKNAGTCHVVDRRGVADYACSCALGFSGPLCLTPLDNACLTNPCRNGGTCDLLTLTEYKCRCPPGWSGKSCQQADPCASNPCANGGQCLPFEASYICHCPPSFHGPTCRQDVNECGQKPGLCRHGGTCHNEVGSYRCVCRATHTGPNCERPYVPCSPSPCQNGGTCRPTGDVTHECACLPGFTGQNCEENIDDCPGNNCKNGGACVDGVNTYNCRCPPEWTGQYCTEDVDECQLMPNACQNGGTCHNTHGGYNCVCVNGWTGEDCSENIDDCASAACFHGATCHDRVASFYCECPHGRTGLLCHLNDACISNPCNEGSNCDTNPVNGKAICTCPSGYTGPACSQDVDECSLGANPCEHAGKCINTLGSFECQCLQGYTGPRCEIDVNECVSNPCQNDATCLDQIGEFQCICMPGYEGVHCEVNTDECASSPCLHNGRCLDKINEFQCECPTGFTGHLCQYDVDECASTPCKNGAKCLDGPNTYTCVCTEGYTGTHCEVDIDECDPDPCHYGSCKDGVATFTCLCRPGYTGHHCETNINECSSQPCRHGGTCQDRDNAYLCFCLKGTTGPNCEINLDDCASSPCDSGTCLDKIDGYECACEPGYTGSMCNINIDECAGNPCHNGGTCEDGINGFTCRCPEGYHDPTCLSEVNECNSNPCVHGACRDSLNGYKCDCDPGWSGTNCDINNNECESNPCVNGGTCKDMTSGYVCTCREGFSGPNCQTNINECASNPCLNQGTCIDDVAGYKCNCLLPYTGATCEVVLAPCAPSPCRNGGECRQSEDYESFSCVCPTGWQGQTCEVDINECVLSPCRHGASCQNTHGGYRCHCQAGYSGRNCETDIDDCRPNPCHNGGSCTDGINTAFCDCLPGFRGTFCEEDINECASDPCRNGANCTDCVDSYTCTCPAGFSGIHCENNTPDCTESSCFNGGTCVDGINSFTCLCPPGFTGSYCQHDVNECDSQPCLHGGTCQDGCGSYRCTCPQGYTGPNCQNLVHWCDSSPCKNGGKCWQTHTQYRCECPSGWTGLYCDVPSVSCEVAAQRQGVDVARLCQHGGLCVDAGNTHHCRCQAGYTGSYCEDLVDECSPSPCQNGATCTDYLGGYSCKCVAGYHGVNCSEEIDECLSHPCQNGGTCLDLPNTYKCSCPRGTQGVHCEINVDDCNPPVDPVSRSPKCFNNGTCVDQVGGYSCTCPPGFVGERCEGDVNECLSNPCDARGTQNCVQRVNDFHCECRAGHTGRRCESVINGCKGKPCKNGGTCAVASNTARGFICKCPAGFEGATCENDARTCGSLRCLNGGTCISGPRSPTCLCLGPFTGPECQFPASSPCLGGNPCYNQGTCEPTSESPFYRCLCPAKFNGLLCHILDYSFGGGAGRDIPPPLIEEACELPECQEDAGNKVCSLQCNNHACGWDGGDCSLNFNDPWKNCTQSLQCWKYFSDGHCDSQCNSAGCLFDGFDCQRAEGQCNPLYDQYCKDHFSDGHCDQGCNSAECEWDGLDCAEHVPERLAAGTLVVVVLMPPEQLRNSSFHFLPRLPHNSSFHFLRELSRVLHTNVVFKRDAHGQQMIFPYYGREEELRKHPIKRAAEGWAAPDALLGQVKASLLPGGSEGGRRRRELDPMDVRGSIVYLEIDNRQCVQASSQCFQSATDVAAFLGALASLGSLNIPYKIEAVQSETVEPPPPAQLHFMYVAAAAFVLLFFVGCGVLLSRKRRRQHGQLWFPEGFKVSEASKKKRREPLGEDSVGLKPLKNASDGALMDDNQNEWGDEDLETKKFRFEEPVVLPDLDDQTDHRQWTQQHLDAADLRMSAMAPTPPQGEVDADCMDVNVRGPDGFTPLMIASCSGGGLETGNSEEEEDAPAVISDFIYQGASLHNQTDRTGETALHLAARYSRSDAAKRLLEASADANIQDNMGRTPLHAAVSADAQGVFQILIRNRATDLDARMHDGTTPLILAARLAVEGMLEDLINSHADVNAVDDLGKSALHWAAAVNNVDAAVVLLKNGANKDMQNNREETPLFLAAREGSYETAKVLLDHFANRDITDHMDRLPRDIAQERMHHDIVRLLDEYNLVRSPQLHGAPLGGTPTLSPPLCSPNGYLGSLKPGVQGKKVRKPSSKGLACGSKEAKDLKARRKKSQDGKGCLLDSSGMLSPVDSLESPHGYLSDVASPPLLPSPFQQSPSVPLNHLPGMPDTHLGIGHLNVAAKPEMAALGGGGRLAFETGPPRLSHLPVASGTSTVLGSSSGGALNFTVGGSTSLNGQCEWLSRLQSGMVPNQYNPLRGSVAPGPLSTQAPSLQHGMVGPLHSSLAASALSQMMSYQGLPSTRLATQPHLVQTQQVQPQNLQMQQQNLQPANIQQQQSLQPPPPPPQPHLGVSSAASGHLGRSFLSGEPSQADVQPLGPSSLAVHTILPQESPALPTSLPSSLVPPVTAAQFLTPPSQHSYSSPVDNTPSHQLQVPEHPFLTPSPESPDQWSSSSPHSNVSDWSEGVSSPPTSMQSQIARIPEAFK

Kd [1]: 2.94 nM | Neutralization activity (murine RGA), % Inhibition [2]: 82% | Neutralization activity (murine RGA), IC50 [2]: 0.36 nM | Neutralization activity (Human RGA), % Inhibition [3]: 99.1% | Neutralization activity (Human RGA), IC50 [3]: 0.27 nM | IC50, mouse Notch1 reporter gene co-culture assay (DLL4-HEK293) [4]: 0.32 nM | Neutralization activity (murine RGA), % Inhibition (maximal) [4]: 86% | Neutralization activity (murine RGA), IC50 [4]: 0.2 nM | Normalized Notch1^ICD level, HPB-ALL cells, 0.001 µg/ml antibody (relative to untreated) [5]: 0.852 | Normalized Notch1^ICD level, HPB-ALL cells, 0.01 µg/ml antibody (relative to untreated) [5]: 1.15 | Normalized Notch1^ICD level, HPB-ALL cells, 0.1 µg/ml antibody (relative to untreated) [5]: 0.33 | Normalized Notch1^ICD level, HPB-ALL cells, 1 µg/ml antibody (relative to untreated) [5]: 0.038 | Normalized Notch1^ICD level, HPB-ALL cells, 10 µg/ml antibody (relative to untreated) [5]: 0.041 | Normalized Notch1^ICD level, ALL-SIL cells, 0.001 µg/ml antibody (relative to untreated) [6]: 1.56 | Normalized Notch1^ICD level, ALL-SIL cells, 0.01 µg/ml antibody (relative to untreated) [6]: 1.31 | Normalized Notch1^ICD level, ALL-SIL cells, 0.1 µg/ml antibody (relative to untreated) [6]: 0.068 | Normalized Notch1^ICD level, ALL-SIL cells, 1 µg/ml antibody (relative to untreated) [6]: 0.033 | Normalized Notch1^ICD level, ALL-SIL cells, 10 µg/ml antibody (relative to untreated) [6]: 0.043 | Normalized Notch1^ICD level, Jurkat cells, 0.001 µg/ml antibody (relative to untreated) [7]: 1.2 | Normalized Notch1^ICD level, Jurkat cells, 0.01 µg/ml antibody (relative to untreated) [7]: 1.17 | Normalized Notch1^ICD level, Jurkat cells, 0.1 µg/ml antibody (relative to untreated) [7]: 0.983 | Normalized Notch1^ICD level, Jurkat cells, 1 µg/ml antibody (relative to untreated) [7]: 1.15 | Normalized Notch1^ICD level, Jurkat cells, 10 µg/ml antibody (relative to untreated) [7]: 1.59 | Normalized Notch1^ICD level, MOLT-4 cells, 0.01 µg/ml antibody (relative to untreated) [8]: 0.962 | Normalized Notch1^ICD level, MOLT-4 cells, 0.1 µg/ml antibody (relative to untreated) [8]: 0.644 | Normalized Notch1^ICD level, MOLT-4 cells, 10 µg/ml antibody (relative to untreated) [8]: 0.043 | Firefly/Renilla Luminescence, human Notch1 reporter cells + 5 mM EDTA, 0.01 µg/mL antibody (Firefly/Renilla ratio) [9]: 312 | Firefly/Renilla Luminescence, human Notch1 reporter cells + 5 mM EDTA, 0.1 µg/mL antibody (Firefly/Renilla ratio) [9]: 172 | Firefly/Renilla Luminescence, human Notch1 reporter cells + 5 mM EDTA, 1 µg/mL antibody (Firefly/Renilla ratio) [9]: 89.9 | Firefly/Renilla Luminescence, human Notch1 reporter cells + 5 mM EDTA, 10 µg/mL antibody (Firefly/Renilla ratio) [9]: 63.5 | Firefly/Renilla Luminescence, human Notch1 reporter cells + 5 mM EDTA, 30 µg/mL antibody (Firefly/Renilla ratio) [9]: 55.2 | IC50, Notch1 signaling inhibition co-culture reporter assay [9]: 0.18 nM | IC50, human Notch1 reporter gene co-culture assay (DLL4-HEK293) [9]: 0.31 nM | Maximal Inhibition (%), Notch1 signaling inhibition co-culture reporter assay [9]: 97.7% | Neutralization activity (Human RGA), % Inhibition (maximal) [9]: 100% | Neutralization activity (Human RGA), IC50 [9]: 0.3 nM | Normalized Notch1^ICD level, CCD1076SK fibroblasts on DLL4, 0.001 µg/ml antibody (relative to untreated) [9]: 0.748 | Normalized Notch1^ICD level, CCD1076SK fibroblasts on DLL4, 0.01 µg/ml antibody (relative to untreated) [9]: 0.402 | Normalized Notch1^ICD level, CCD1076SK fibroblasts on DLL4, 0.1 µg/ml antibody (relative to untreated) [9]: 0.003 | Normalized Notch1^ICD level, CCD1076SK fibroblasts on DLL4, 1 µg/ml antibody (relative to untreated) [9]: 0.003 | Normalized Notch1^ICD level, CCD1076SK fibroblasts on DLL4, 10 µg/ml antibody (relative to untreated) [9]: 0.006 | Normalized Notch1^ICD level, DND-41 cells, 0.001 µg/ml antibody (relative to untreated) [10]: 0.787 | Normalized Notch1^ICD level, DND-41 cells, 0.01 µg/ml antibody (relative to untreated) [10]: 0.84 | Normalized Notch1^ICD level, DND-41 cells, 0.1 µg/ml antibody (relative to untreated) [10]: 0.479 | Normalized Notch1^ICD level, DND-41 cells, 1 µg/ml antibody (relative to untreated) [10]: 0.199 | Normalized Notch1^ICD level, DND-41 cells, 10 µg/ml antibody (relative to untreated) [10]: 0.114 | Normalized Notch1^ICD level, CCRF-CEM cells, 0.001 µg/ml antibody (relative to untreated) [11]: 1.12 | Normalized Notch1^ICD level, CCRF-CEM cells, 0.01 µg/ml antibody (relative to untreated) [11]: 1.28 | Normalized Notch1^ICD level, CCRF-CEM cells, 0.1 µg/ml antibody (relative to untreated) [11]: 0.424 | Normalized Notch1^ICD level, CCRF-CEM cells, 1 µg/ml antibody (relative to untreated) [11]: 0.048 | Normalized Notch1^ICD level, CCRF-CEM cells, 10 µg/ml antibody (relative to untreated) [11]: 0.027
Substance: A2 antibody (Wu, Y. et al., Nature 464:1052-1057, 2010)
IC50, MTS viability assay of HPB-ALL leukemia cells [5]: 1.85 nM

Firefly/Renilla Luminescence, human Notch1 reporter cells + 5 mM EDTA, 0.01 µg/mL antibody (Firefly/Renilla ratio) [9]: 267 | Firefly/Renilla Luminescence, human Notch1 reporter cells + 5 mM EDTA, 0.1 µg/mL antibody (Firefly/Renilla ratio) [9]: 299 | Firefly/Renilla Luminescence, human Notch1 reporter cells + 5 mM EDTA, 1 µg/mL antibody (Firefly/Renilla ratio) [9]: 278 | Firefly/Renilla Luminescence, human Notch1 reporter cells + 5 mM EDTA, 10 µg/mL antibody (Firefly/Renilla ratio) [9]: 257 | Firefly/Renilla Luminescence, human Notch1 reporter cells + 5 mM EDTA, 30 µg/mL antibody (Firefly/Renilla ratio) [9]: 229
Substance: control anti-E. tenella antibody
